# Data published in article PMC2754381.
# B1: MtOMPDC (wildtype OMPDC from Methanothermobacter thermautotrophicus) (Methanothermobacter thermautotrophicus str. Delta H) (protein)
# chain: MRSRRVDVMDVMNRLILAMDLMNRDDALRVTGEVREYIDTVKIGYPLVLSEGMDIIAEFRKRFGCRIIADFKVADIPETNEKICRATFKAGADAIIVHGFRGADSVRACLNVAEEMGREVFLLTEMSHPGAEMFIQGAADEIARMGVDLGVKNYVGPSTRPERLSRLREIIGQDSFLISPGVGAQGGDPGETLRFADAIIVGRSIYLADNPAAAAAGIIESIKDLLNP
# B2: ScOMPDC (C155S mutant OMPDC from Saccharomyces cerevisiae) (Saccharomyces cerevisiae S288C; C155S) (protein)
# chain: MSKATYKERAATHPSPVAAKLFNIMHEKQTNLCASLDVRTTKELLELVEALGPKICLLKTHVDILTDFSMEGTVKPLKALSAKYNFLLFEDRKFADIGNTVKLQYSAGVYRIAEWADITNAHGVVGPGIVSGLKQAAEEVTKEPRGLLMLAELSSKGSLATGEYTKGTVDIAKSDKDFVIGFIAQRDMGGRDEGYDWLIMTPGVGLDDKGDALGQQYRTVDDVVSTGSDIIIVGRGLFAKGRDAKVEGERYRKAGWEAYLRRCGQQN
# Experiments:
# purified protein [1] = substrate: O=C(O)c1cc(=O)[nH]c(=O)n1[C@@H]1O[C@H](COP(=O)(O)O)[C@@H](O)[C@H]1O; test: purified protein; format: biochemical, Methanothermobacter thermautotrophicus; conditions: 25 °C, pH 7.1, 10 mM MOPS, I = 0.1 (NaCl)
# purified protein [2] = substrate: O=C(O)c1cc(=O)[nH]c(=O)n1[C@@H]1O[C@H](COP(=O)(O)O)[C@@H](O)[C@H]1O; test: purified protein; format: biochemical, Saccharomyces cerevisiae; conditions: 25 °C, pH 7.1, 10 mM MOPS, I = 0.1 (NaCl)
Protein,Km (purified protein [1]) [µM],kcat (purified protein [1]) [s⁻¹],kcat/Km (purified protein [1]) [M⁻¹ s⁻¹],Km (purified protein [2]) [µM],kcat (purified protein [2]) [s⁻¹],kcat/Km (purified protein [2]) [M⁻¹ s⁻¹]
B1,1.5 ± 0.2,4.7 ± 0.3,3.1e+06 ± 300000,–,–,–
B2,–,–,–,1.4 ± 0.2,15 ± 1,1.1e+07 ± 1e+06
